Data published in article PMC5083130.

Tests used:
[1] = biological target: NCS-Orf16 (S. carzinostaticus); assay: SEC
[2] = biological target: SgcJ (Streptomyces globisporus); assay: SEC

Substance | stoichiometry N [1] | stoichiometry N [2]
NCS-Orf16 (natural protein) | 2 | –
SgcJ (natural protein) | – | 2
